Data as given in US20150031601A1.

Biological target: serum proteins
Assay: 90% serum, 30 kDa ultrafiltration, HPLC

Row | Binder | Protein binding (%)
1 | GFCWYVCAYRNGVRVCYRRCN [SEQ ID NO: 21] | 98.5
2 | GFCWYVCVYRNGVRVCYRRCT [SEQ ID NO: 54] | 99
3 | GFCWYVCVYRNGVRSCYRRCN [SEQ ID NO: 44] | 85
4 | GFCGRVCVYRNGVRVCYRRCN [SEQ ID NO: 61] | 72
5 | GFCGHVCVYRNGVRVCYRRCN [SEQ ID NO: 60] | 64
6 | GFCWYVCVYRNGVRVCKRRCN [SEQ ID NO: 47] | 89
7 | GFCWYVCVYRNGVRGCYRRCN [SEQ ID NO: 38] | 93
8 | GFCWYVCVYRNGVRNCYRRCN [SEQ ID NO: 41] | 97
9 | GFCWYVCHYRNGVRVCYRRCN [SEQ ID NO: 23] | 98
10 | GFCWYVCVYRNGVRQCYRRCN [SEQ ID NO: 42] | 96
11 | GFCWYVCVYRNGVRHCYRRCN [SEQ ID NO: 39] | 98
12 | GFCWYVCVYRNGSRVCYRRCN [SEQ ID NO: 36] | 60
13 | GFCWYVCVYRNGVRVCNRRCN [SEQ ID NO: 48] | 68
14 | GFCWYVCVYRNGVRVCYRRCS [SEQ ID NO: 53] | 99
15 | GFCWNVCVYRNGVRVCHRRCN [NZ17074 (the antimicrobial peptide of SEQ ID NO: 70)] | 79
16 | GFCWYVCVYRNGVRTCYRRCN [SEQ ID NO: 45] | 98
17 | GFCSYVCVYRNGVRVCYRRCN [SEQ ID NO: 7] | 68
18 | GFCAYVCVYRNGVRVCYRRCN [SEQ ID NO: 4] | 89
19 | GFCWYVCSYRNGVRVCYRRCN [SEQ ID NO: 24] | 85
20 | GFCFYVCVYRNGVRVCRRRCN [SEQ ID NO: 56] | 94
21 | GFCWYVCYYRNGVRVCYRRCN [SEQ ID NO: 25] | 98
22 | GFCWYVCVYRNGGRVCYRRCN [SEQ ID NO: 30] | 99
23 | GACWYVCVYRNGVRVCYRRCN [SEQ ID NO: 3] | 86
24 | GFCWYVCVRRNGVRVCYRRCN [SEQ ID NO: 28] | 92
25 | GFCWYVCVYRNGARVCYRRCN [SEQ ID NO: 29] | 99
26 | GFCWYVCVYRNGVRVCHRRCN [SEQ ID NO: 46] | 88
27 | GFCWYVCVYRNGPRVCYRRCN [SEQ ID NO: 33] | 99

Further lines, results first:

Row | Protein binding (%) | Binder
28 | 40 | GFCWRACVYRNGVRACYRRCN [SEQ ID NO: 319]
29 | 95 | GFCWRVCSYRNGVRKCYRRCN [SEQ ID NO: 331]
30 | 76 | GFCAHVCVKRNGARVCYRRCN [SEQ ID NO: 362]
31 | 92 | GFCWHVCSKRNGLRVCYRRCN [SEQ ID NO: 396]
32 | 74 | GFCWYACAYRNGVRACYRRCN [SEQ ID NO: 343]
33 | 90 | GFCWRVCVYRNGVRSCHRRCN [SEQ ID NO: 316]
34 | 87 | GFCWRVCVYSNGKRSCHRRCN [SEQ ID NO: 509]
35 | 90 | GFCWYVCVKRNGARKCHRRCN [SEQ ID NO: 454]
36 | 99 | GFCWRVCHYRNGVRVCYRRCN [SEQ ID NO: 74]
37 | 80 | RFCWNVCVYRNGVRVCHRHCN [SEQ ID NO: 359]
38 | 85 | GFCWRVCASRNGLRVCYRRCN [SEQ ID NO: 435]
39 | 77 | GFCGRVCVYKNGKRACYRRCN [SEQ ID NO: 493]
40 | 98 | GFCWYACVYRNGKRACYRRCN [SEQ ID NO: 340]
41 | 80 | GFCWHVCARRNGARVCYRRCN [SEQ ID NO: 394]
42 | 98 | GFCWRVCHYRNSVRVCYRRCN [SEQ ID NO: 327]
43 | 92 | GFCWYVCARRNGLRSCYRRCN [SEQ ID NO: 453]
44 | 93 | GFCWYVCVKRNGVRSCYRRCN [SEQ ID NO: 87]
45 | 88 | GFCWNACARRNGVRVCYRRCN [SEQ ID NO: 407]
46 | 86 | GFCWNVCAYRNGKRACYRRCN [SEQ ID NO: 411]
47 | 95 | GFCWRVCVRRNGVRVCHRRCN [SEQ ID NO: 335]

Row | Protein binding (%) | Binder
48 | 96 | GFCWYACVYRNGKRVCYRRCN [SEQ ID NO: 80]
49 | 90 | GFCWRVCAYKNGKRSCYRRCN [SEQ ID NO: 523]
50 | 97 | GFCWRACVYRNGVRVCYRRCN [SEQ ID NO: 72]
51 | 92 | GFCWRVCHYSNGKRVCYRRCN [SEQ ID NO: 439]
52 | 92 | GFCWRACAYRNGVRACYRRCN [SEQ ID NO: 418]
53 | 88 | GFCWRACVYRNGVRSCYRRCN [SEQ ID NO: 320]
54 | 95 | GFCWRACAYRNGKRVCYRRCN [SEQ ID NO: 417]
55 | 69 | GFCWRVCAYSNGKRVCYRRCN [SEQ ID NO: 425]
56 | 81 | GFCGRVCVYRNGKRACYRRCN [SEQ ID NO: 386]
57 | 65 | GFCFRSCVRRNGVRVCYRRCN [SEQ ID NO: 377]
58 | 92 | GFCWRVCVYRNGVRVCHRRCN [SEQ ID NO: 76]
59 | 86 | GFCWYTCVKRNGLRVCYRRCN [SEQ ID NO: 346]
60 | 98 | GFCWYACAKRNGLRVCYRRCN [SEQ ID NO: 450]
61 | 95 | GFCWKVCARRNGARSCYRRCN [SEQ ID NO: 504]
62 | 80 | GFCARVCAKRNGVRVCYRRCN [SEQ ID NO: 363]
63 | 87 | GFCWKVCVYRNGVRVCSRRCN [SEQ ID NO: 68]
64 | 90 | GFCWYVCVYKNGVRVCHRRCN [SEQ ID NO: 89]
65 | 98 | GFCFRVCVKRNGVRKCYRRCN [SEQ ID NO: 381]
66 | 99.5 | GFCWYVCVYRNGVRVCYRRCN [antimicrobial peptide of SEQ ID NO: 2 (the parent antimicrobial peptide)]
67 | 87 | GFCWHVCVYKNGKRSCYRRCN [SEQ ID NO: 390]
